Laboratory results published in patent US8722043B2, “Induction of p53 expression by neutralization of neuropilin-2 for the treatment of cancers” (Diaclone, priority 2008, dated 2014).

Experiments:
HT29ctrl cells = test: Annexin V-APC apoptosis test; assay type: cell-based, human; conditions: 0.5, 1 and 5 μg/ml; 16 hours
Method: In order to determine the ability of the ITAC-B1 antibody to induce apoptosis of tumour cells expressing NRP-2, an in vitro Annexin V-APC apoptosis test was carried out (BD Pharmingen, San Diego, Calif.). This test is based on the externalization of phosphatidylserin by apoptotic cells and on the binding of Annexin V-APC to this molecule.
1 ml of DMEM medium containing 10% of inactivated FCS and 100 000 HT29-NRP-2 cells or 100 000 HT29ctrl cells were seeded, per well, into a 24-well Nunc plate. After adhesion of the cells (3 hours), three concentrations of ITAC-B anti-NRP-2 antibody (0.5 μg/ml, 1 μg/ml and 5 μg/ml) were tested in various wells. In parallel, “cells alone” controls were carried out, as were negative controls (anti-human mouse IgG1 antibody (BZ1) at the same concentrations as the ITAC-B1 antibody).
After incubation for 16 hours, the culture supernatant was drawn off and 500 μl of trypsin-EDTA were added to each well and left in contact for 10 minutes. When the cells began to detach, 500 μl of DMEM medium-10% FCS were added per well. […]
For each of the panels of FIG. 12, the number of events (number of cells) is indicated on the y-axis and the fluorescence intensity (corresponding to the labelling of the cells with the Annexin V-APC) is represented on the x-axis. […]

[1] = system: Colo320 human tumour cells; test: Tumour colony formation in semi-solid agar medium; assay type: cell-based
Method: In order to determine whether the ITAC-B1 antibody has a neutralizing activity on the formation of tumour colonies in vitro, tests for tumour colony formation in vitro in a semi-solid agar medium containing agar were carried out. The principle of this test is based on bringing Colo320 human tumour cells (which express NRP-2 at their membrane surface and, furthermore, naturally secrete VEGF into the culture medium) into contact with the ITAC-B1 antibody. 4000 Colo320 cells are seeded into each well of a 24-well plate, in a semi-solid medium containing agar, and in the presence of 10 μg/ml of anti-NRP-2 antibody ITAC-B1. By way of comparison, the same test is carried out in the presence of cytotoxic agents with a proven action, i.e. 5-fluorouracil (5-FU), used at a rate of 50 μg/ml, or of Avastin® (bevacizumab: humanized monoclonal antibodies directed against VEGF), used at a rate of 50 μg/ml, or in the presence of a control isotype antibody (mouse IgG1 monoclonal antibody (BZ1)), used at a rate of 10 μg/ml.
At 10 days post-seeding, the colonies were counted under an optical microscope.
Since neuropilin-2 is a coreceptor for VEGF, it was verified whether the activity of ITAC-B1 was dependent on an interaction between NRP-2 and the VEGF produced by the Colo320 cells. With this aim, the tests for Colo320-cell colony formation were carried out under the conditions described above, and in the presence of ITAC-B1 antibody (10 μg/ml), of bevacizumab (50 μg/ml) or of control antibody (10 μg/ml), used separately or in combination.
The results are given in FIG. 10: the y-axis represents the number of colonies formed; on the x-axis, the antibodies present in the culture medium are indicated by a “+”.

[2] = biological target: T1, neuropilin-2 on HT29-NRP-2 tumour cells (Homo sapiens, UniProt O60462); test: Competition between VEGFa and ITAC-B1 for recognition of neuropilin-2 (flow cytometry); assay type: binding; conditions: preincubation with VEGF 1000 ng/ml for 15 minutes
T1 construct: expressed in transfected cells; host or cells: HT29 (human colorectal cancer) and P815 (murine mastocytoma) cells, G418-selected
Method: These cells were then incubated with the ITAC-B1 antibody or with a control isotype antibody (BZ1 antibody), and analysed by flow cytometry as described in Example 2 above.

HT29-NRP-2 tumour cells = test: HT29-NRP-2 subcutaneous xenograft, tumour volume; assay type: in vivo, immunodeficient mice
Method: HT29-NRP-2 tumour cells were injected subcutaneously into 20 immunodeficient mice, at a rate of 1×10^6 cells per mouse, in the right flank. 10 days after the injection, the tumours measure approximately 5 mm×5 mm.
In accordance with the protocol described above, group B was inoculated with ITAC-B1 at D0 (12 mg/kg), D3 (6 mg/kg), D7 (12 mg/kg) and D10 (6 mg/kg). Group C was inoculated with 20 mg/kg of 5-FU from D0 to D4 and then with 100 mg/kg at D9. Group D was inoculated with ITAC-B1 at D0 (12 mg/kg), D3 (6 mg/kg), D7 (12 mg/kg) and D10 (6 mg/kg) and with 20 mg/kg of 5-FU from D0 to D4 and 100 mg/kg of 5-FU at D9.
The tumours were measured twice a week, and the volume of the tumours was calculated with the formula: V (mm^3)=d^2×D/2.
FIG. 21 represents the tumour volume as a function of time. Group A (PBS control) is represented by (⋄), group B (mice inoculated with the ITAC-B1 antibody) is represented by (▪), group C (mice inoculated with 5-FU) is represented by (Δ), and group D (mice inoculated both with the ITAC-B1 antibody and with 5-FU) is represented by (x).

T1 sequence (O60462 21-931): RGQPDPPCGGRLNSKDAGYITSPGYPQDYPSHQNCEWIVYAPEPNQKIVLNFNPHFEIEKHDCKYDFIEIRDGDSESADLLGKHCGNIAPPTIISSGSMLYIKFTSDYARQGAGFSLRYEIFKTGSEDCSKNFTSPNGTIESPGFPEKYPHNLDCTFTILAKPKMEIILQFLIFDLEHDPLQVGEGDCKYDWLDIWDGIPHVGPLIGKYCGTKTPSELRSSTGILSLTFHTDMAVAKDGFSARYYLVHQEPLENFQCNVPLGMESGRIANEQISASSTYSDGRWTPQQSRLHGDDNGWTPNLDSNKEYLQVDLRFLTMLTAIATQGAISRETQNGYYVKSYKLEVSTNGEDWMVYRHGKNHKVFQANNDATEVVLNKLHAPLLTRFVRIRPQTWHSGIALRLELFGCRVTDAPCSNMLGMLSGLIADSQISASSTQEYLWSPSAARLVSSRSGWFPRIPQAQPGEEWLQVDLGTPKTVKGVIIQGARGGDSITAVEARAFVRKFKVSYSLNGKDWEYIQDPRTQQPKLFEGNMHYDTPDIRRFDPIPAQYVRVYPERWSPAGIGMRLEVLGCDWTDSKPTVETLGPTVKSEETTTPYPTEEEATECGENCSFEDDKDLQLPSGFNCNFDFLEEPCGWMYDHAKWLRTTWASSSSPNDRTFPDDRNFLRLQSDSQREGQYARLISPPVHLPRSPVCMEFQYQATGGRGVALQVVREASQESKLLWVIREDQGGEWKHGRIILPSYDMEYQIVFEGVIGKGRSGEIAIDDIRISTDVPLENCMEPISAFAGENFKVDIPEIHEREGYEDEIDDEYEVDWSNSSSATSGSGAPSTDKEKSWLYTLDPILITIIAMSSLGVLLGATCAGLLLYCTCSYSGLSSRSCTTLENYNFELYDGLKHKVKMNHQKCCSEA

B1: ITAC-B1: anti-human neuropilin-2 murine monoclonal antibody, VH SEQ ID No. 2, VL SEQ ID No. 4, produced by hybridoma CNCM 1-4054 (antibody, listed as Mus musculus, V domains shown)
VH: EVKLQESGAELVKPGASVKLSCTVSGFNIKDTYIHWVIQRPEQGLEWLGRIDPANGNTKYDPKFQGKATITADTSSNTAYLQLSSLTSEDTAVYYCARWAVVGDYWGQGTTLTVSS
VL: YCDHPLYKFLHVSAGDRVTITCKASQSVSDDVAWYQQKPGQSPKLLIYSASNRYTGVPDRFTGSGYGTDFTFTISTVQPEDLAVYFCQQDYSSPTFGSGTKLELK
- apoptosis (Annexin V-APC labelling) (HT29ctrl cells): does not bring about the apoptosis of cells not expressing NRP-2
- number of colonies compared with the cells alone control ([1]; ITAC-B1 10 μg/ml alone (FIG. 10)): greatly reduced
- number of colonies ([1]; ITAC-B1 10 μg/ml combined with bevacizumab 50 μg/ml (FIG. 10)): identical to that observed when the medium contains the ITAC-B1 antibody alone
- binding to the tumour cells in the presence of VEGFa [2]: does not prevent the binding of ITAC-B1 to the tumour cells
- tumour volume (HT29-NRP-2 tumour cells; group B: ITAC-B1 intraperitoneally D0 12 mg/kg, D3 6 mg/kg, D7 12 mg/kg, D10 6 mg/kg): reduction in tumour volume is observed starting from D14
- tumour volume (HT29-NRP-2 tumour cells; group D: ITAC-B1 combined with 5-FU, same regimens): more marked
